{
  "source": "patent US20140348819A1",
  "about": "“Methods of Treating Cancer” (Dana-Farber Cancer Institute, Inc., priority 2011, published 2014)",
  "system": "six V600E BRAF melanoma cell lines",
  "assay": "Screening of recombinant RTK ligands for ability to confer resistance to BRAFi (PLX4720) or MEKi (PD184352) (Table 4)",
  "format": "cell-based, human",
  "set-up": "ability of recombinant RTK ligand to confer resistance / ability of recombinant RTK ligand to confer resistance (screening value): scale not given here",
  "method_in_brief": "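Resistance to BRAFi (PLX4720) or MEKi (PD184352) was tested in six V600E BRAF melanoma lines given one of 22 recombinant RTK ligands. For a subset of RTKs, activation was checked by high-throughput tyrosine kinase phosphorylation profiling and western blot.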",
  "data": [
    {"molecule": "Pleiotrophin (protein, UniProt P21246 33-168, looked up) Pleiotrophin: GKKEKPEKKVKKSDCGEWQWSVCVPTSGDCGLGTREGTRTGAECKQTMKTQRCKIPCNWKKQFGAECKYQFQAWGECDLNTALKTRTGSLKRALHNAECQKTVTISKPCGKLTKPKPQAESKKKKKEGKKQEKMLD", "values": [
      {"measurement": "ability of recombinant RTK ligand to confer resistance", "setting": "A2058, PD184352 - 1 uM, ligand 3.9 ng/ml", "result": 1.06},
      {"measurement": "ability of recombinant RTK ligand to confer resistance", "setting": "A2058, PD184352 - 1 uM, ligand 15.625 ng/ml", "result": 1.07},
      {"measurement": "ability of recombinant RTK ligand to confer resistance", "setting": "A2058, PD184352 - 1 uM, ligand 62.5 ng/ml", "result": 1.03},
      {"measurement": "ability of recombinant RTK ligand to confer resistance", "setting": "A2058, PD184352 - 1 uM, ligand 250 ng/ml", "result": 1.00},
      {"measurement": "ability of recombinant RTK ligand to confer resistance", "setting": "A2058, PD184352 - 1 uM, ligand 1000 ng/ml", "result": 0.87},
      {"measurement": "ability of recombinant RTK ligand to confer resistance", "setting": "A2058, PLX4720 - 2 uM, ligand 3.9 ng/ml", "result": 1.03},
      {"measurement": "ability of recombinant RTK ligand to confer resistance", "setting": "A2058, PLX4720 - 2 uM, ligand 15.625 ng/ml", "result": 1.04},
      {"measurement": "ability of recombinant RTK ligand to confer resistance", "setting": "A2058, PLX4720 - 2 uM, ligand 62.5 ng/ml", "result": 1.04},
      {"measurement": "ability of recombinant RTK ligand to confer resistance", "setting": "A2058, PLX4720 - 2 uM, ligand 250 ng/ml", "result": 1.02},
      {"measurement": "ability of recombinant RTK ligand to confer resistance", "setting": "A2058, PLX4720 - 2 uM, ligand 1000 ng/ml", "result": 0.93},
      {"measurement": "ability of recombinant RTK ligand to confer resistance", "setting": "C32, PD184352 - 1 uM, ligand 3.9 ng/ml", "result": 1.07},
      {"measurement": "ability of recombinant RTK ligand to confer resistance", "setting": "C32, PD184352 - 1 uM, ligand 15.625 ng/ml", "result": 1.08},
      {"measurement": "ability of recombinant RTK ligand to confer resistance", "setting": "C32, PD184352 - 1 uM, ligand 62.5 ng/ml", "result": 1.07},
      {"measurement": "ability of recombinant RTK ligand to confer resistance", "setting": "C32, PD184352 - 1 uM, ligand 250 ng/ml", "result": 1.12},
      {"measurement": "ability of recombinant RTK ligand to confer resistance", "setting": "C32, PD184352 - 1 uM, ligand 1000 ng/ml", "result": 0.99},
      {"measurement": "ability of recombinant RTK ligand to confer resistance", "setting": "C32, PLX4720 - 2 uM, ligand 3.9 ng/ml", "result": 1.01},
      {"measurement": "ability of recombinant RTK ligand to confer resistance", "setting": "C32, PLX4720 - 2 uM, ligand 15.625 ng/ml", "result": 1.04},
      {"measurement": "ability of recombinant RTK ligand to confer resistance", "setting": "C32, PLX4720 - 2 uM, ligand 62.5 ng/ml", "result": 0.95},
      {"measurement": "ability of recombinant RTK ligand to confer resistance", "setting": "C32, PLX4720 - 2 uM, ligand 250 ng/ml", "result": 0.96},
      {"measurement": "ability of recombinant RTK ligand to confer resistance", "setting": "C32, PLX4720 - 2 uM, ligand 1000 ng/ml", "result": 0.87},
      {"measurement": "ability of recombinant RTK ligand to confer resistance", "setting": "Colo 829, PD184352 - 1 uM, ligand 3.9 ng/ml", "result": 1.05},
      {"measurement": "ability of recombinant RTK ligand to confer resistance", "setting": "Colo 829, PD184352 - 1 uM, ligand 15.625 ng/ml", "result": 0.99},
      {"measurement": "ability of recombinant RTK ligand to confer resistance", "setting": "Colo 829, PD184352 - 1 uM, ligand 62.5 ng/ml", "result": 0.99},
      {"measurement": "ability of recombinant RTK ligand to confer resistance", "setting": "Colo 829, PD184352 - 1 uM, ligand 250 ng/ml", "result": 0.96},
      {"measurement": "ability of recombinant RTK ligand to confer resistance", "setting": "Colo 829, PD184352 - 1 uM, ligand 1000 ng/ml", "result": 0.95},
      {"measurement": "ability of recombinant RTK ligand to confer resistance", "setting": "Colo 829, PLX4720 - 2 uM, ligand 3.9 ng/ml", "result": 1.03},
      {"measurement": "ability of recombinant RTK ligand to confer resistance", "setting": "Colo 829, PLX4720 - 2 uM, ligand 15.625 ng/ml", "result": 0.96},
      {"measurement": "ability of recombinant RTK ligand to confer resistance", "setting": "Colo 829, PLX4720 - 2 uM, ligand 62.5 ng/ml", "result": 0.97},
      {"measurement": "ability of recombinant RTK ligand to confer resistance", "setting": "Colo 829, PLX4720 - 2 uM, ligand 250 ng/ml", "result": 0.36},
      {"measurement": "ability of recombinant RTK ligand to confer resistance", "setting": "Colo 829, PLX4720 - 2 uM, ligand 1000 ng/ml", "result": 0.98},
      {"measurement": "ability of recombinant RTK ligand to confer resistance", "setting": "G-361, PD184352 - 1 uM, ligand 3.9 ng/ml", "result": 0.96},
      {"measurement": "ability of recombinant RTK ligand to confer resistance", "setting": "G-361, PD184352 - 1 uM, ligand 15.625 ng/ml", "result": 0.96},
      {"measurement": "ability of recombinant RTK ligand to confer resistance", "setting": "G-361, PD184352 - 1 uM, ligand 62.5 ng/ml", "result": 0.97},
      {"measurement": "ability of recombinant RTK ligand to confer resistance", "setting": "G-361, PD184352 - 1 uM, ligand 250 ng/ml", "result": 0.92},
      {"measurement": "ability of recombinant RTK ligand to confer resistance", "setting": "G-361, PD184352 - 1 uM, ligand 1000 ng/ml", "result": 0.92},
      {"measurement": "ability of recombinant RTK ligand to confer resistance", "setting": "G-361, PLX4720 - 2 uM, ligand 3.9 ng/ml", "result": 1.04},
      {"measurement": "ability of recombinant RTK ligand to confer resistance", "setting": "G-361, PLX4720 - 2 uM, ligand 15.625 ng/ml", "result": 0.97},
      {"measurement": "ability of recombinant RTK ligand to confer resistance", "setting": "G-361, PLX4720 - 2 uM, ligand 62.5 ng/ml", "result": 0.94},
      {"measurement": "ability of recombinant RTK ligand to confer resistance", "setting": "G-361, PLX4720 - 2 uM, ligand 250 ng/ml", "result": 0.94},
      {"measurement": "ability of recombinant RTK ligand to confer resistance", "setting": "G-361, PLX4720 - 2 uM, ligand 1000 ng/ml", "result": 1.00},
      {"measurement": "ability of recombinant RTK ligand to confer resistance", "setting": "SK-MEL-5, PD184352 - 1 uM, ligand 3.9 ng/ml", "result": 0.93},
      {"measurement": "ability of recombinant RTK ligand to confer resistance", "setting": "SK-MEL-5, PD184352 - 1 uM, ligand 15.625 ng/ml", "result": 1.00},
      {"measurement": "ability of recombinant RTK ligand to confer resistance", "setting": "SK-MEL-5, PD184352 - 1 uM, ligand 62.5 ng/ml", "result": 1.02},
      {"measurement": "ability of recombinant RTK ligand to confer resistance", "setting": "SK-MEL-5, PD184352 - 1 uM, ligand 250 ng/ml", "result": 1.08},
      {"measurement": "ability of recombinant RTK ligand to confer resistance", "setting": "SK-MEL-5, PD184352 - 1 uM, ligand 1000 ng/ml", "result": 1.11},
      {"measurement": "ability of recombinant RTK ligand to confer resistance", "setting": "SK-MEL-5, PLX4720 - 2 uM, ligand 3.9 ng/ml", "result": 0.92},
      {"measurement": "ability of recombinant RTK ligand to confer resistance", "setting": "SK-MEL-5, PLX4720 - 2 uM, ligand 15.625 ng/ml", "result": 0.89},
      {"measurement": "ability of recombinant RTK ligand to confer resistance", "setting": "SK-MEL-5, PLX4720 - 2 uM, ligand 62.5 ng/ml", "result": 0.95},
      {"measurement": "ability of recombinant RTK ligand to confer resistance", "setting": "SK-MEL-5, PLX4720 - 2 uM, ligand 250 ng/ml", "result": 1.07},
      {"measurement": "ability of recombinant RTK ligand to confer resistance", "setting": "SK-MEL-5, PLX4720 - 2 uM, ligand 1000 ng/ml", "result": 0.97},
      {"measurement": "ability of recombinant RTK ligand to confer resistance", "setting": "SK-MEL-28, PD184352 - 1 uM, ligand 3.9 ng/ml", "result": 1.11},
      {"measurement": "ability of recombinant RTK ligand to confer resistance", "setting": "SK-MEL-28, PD184352 - 1 uM, ligand 15.625 ng/ml", "result": 0.98},
      {"measurement": "ability of recombinant RTK ligand to confer resistance", "setting": "SK-MEL-28, PD184352 - 1 uM, ligand 62.5 ng/ml", "result": 0.93},
      {"measurement": "ability of recombinant RTK ligand to confer resistance", "setting": "SK-MEL-28, PD184352 - 1 uM, ligand 250 ng/ml", "result": 1.02},
      {"measurement": "ability of recombinant RTK ligand to confer resistance", "setting": "SK-MEL-28, PD184352 - 1 uM, ligand 1000 ng/ml", "result": 0.87},
      {"measurement": "ability of recombinant RTK ligand to confer resistance", "setting": "SK-MEL-28, PLX4720 - 2 uM, ligand 3.9 ng/ml", "result": 1.04},
      {"measurement": "ability of recombinant RTK ligand to confer resistance", "setting": "SK-MEL-28, PLX4720 - 2 uM, ligand 15.625 ng/ml", "result": 0.95},
      {"measurement": "ability of recombinant RTK ligand to confer resistance", "setting": "SK-MEL-28, PLX4720 - 2 uM, ligand 62.5 ng/ml", "result": 0.95},
      {"measurement": "ability of recombinant RTK ligand to confer resistance", "setting": "SK-MEL-28, PLX4720 - 2 uM, ligand 250 ng/ml", "result": 0.96},
      {"measurement": "ability of recombinant RTK ligand to confer resistance", "setting": "SK-MEL-28, PLX4720 - 2 uM, ligand 1000 ng/ml", "result": 0.89}
    ]}
  ]
}
